Measurements from PMC3949714 (PLoS ONE, 2014).

Key:
[1] = biological target: T1, mu-opioid receptors (MOR) (Mus musculus, UniProt P42866); experiment: cell-based; type: cell-based, murine; conditions: Table 2 as titled; 20000 cells/well, FSK 100 µM, 0.3 nM to 1 µM in half log intervals, 30 min, Alphascreen; one-site fit, at least three independent experiments; read-out: IC50 for the inhibition of forskolin induced cAMP in HEK-MOP cells
T1 construct: FLAG; expressed in transfected cells

[2] = Biotransformation in homogenised inflamed tissue at pH 5.5 (LC/MS, mean residence time); conditions: for MRT: MES pH 5.5, 37°C, 120 min, AUMC/AUC of LC/MS peak intensity
[3] = RP-HPLC retention time (read by the paper as polarity); type: physicochemical; conditions: water/acetonitrile gradient with 0.1% formic acid, MS TIC detection
Protocol: An Agilent binary HPLC composing of an Agilent 1100 LC pump, an Agilent 1100 well plate auto-sampler (Agilent Technologies, Santa Clara, CA, USA) and a Jupiter 5 μ (C4, 300 A, 150×2.00 mm, 5 μ) RP HPLC column (Phenomenex, Torrance, CA, USA) were used for separation. The mobile phase flow rate was 200 µl/min and the volume of injection was 20 µL. The separations were performed using a binary solvent gradient; water (Milli-Q; Millipore Corporation, Bedford, MA) which contained 0.1% v/v formic acid was used as the solvent A and acetonitrile (Merck KGaA, Darmstadt, Germany) which contained 0.1% v/v formic acid (Nuplex industries Pty Ltd. (NSW, Australia) was used as the solvent B. The chromatographic separation was achieved using the gradient shown in Table 1.
An API 3000 tandem mass spectrometer equipped with a turbo ion spray was used as the detector. Detection was performed in total ion current (TIC) mode (MS1/Q1), in positive mode, within the range 200–3000 amu. The data were acquired and processed by Analyst 1.5 software (Applied Biosystems, Foster city, CA, USA). Mass spectra were obtained using: declustering potential (DF) of 16 V, focusing potential (FP) of 120 V, Entrance potential (EP) of 10 V, and Ion spray voltage (IS) of 5000 V. Structure identity of fragments was performed using the respective mass/charge (m/z) values of each peptide metabolite. Direct flow injections were carried out using Model 11 plus Harvard Syringe pump (Harvard Apparatus Inc, Holliston, MA, USA).

[4] = incubation of BE 1-13 (115 µM) in rat inflamed tissue homogenate
[5] = incubation of BE 1-13, Jupiter C4 column
[6] = incubation of BE 1-17 (115 µM) in rat inflamed tissue homogenate
[7] = incubation of BE 1-31 (115 µM) in rat inflamed tissue homogenate
[8] = incubation of BE 1-17, Jupiter C4 column
[9] = incubation of BE 1-31, Jupiter C4 300 A column, 200 µl/min
[10] = incubation of BE 1-11 (115 µM) in rat inflamed tissue homogenate
[11] = incubation of BE 1-11, Jupiter C4 column

T1 sequence (P42866 whole entry): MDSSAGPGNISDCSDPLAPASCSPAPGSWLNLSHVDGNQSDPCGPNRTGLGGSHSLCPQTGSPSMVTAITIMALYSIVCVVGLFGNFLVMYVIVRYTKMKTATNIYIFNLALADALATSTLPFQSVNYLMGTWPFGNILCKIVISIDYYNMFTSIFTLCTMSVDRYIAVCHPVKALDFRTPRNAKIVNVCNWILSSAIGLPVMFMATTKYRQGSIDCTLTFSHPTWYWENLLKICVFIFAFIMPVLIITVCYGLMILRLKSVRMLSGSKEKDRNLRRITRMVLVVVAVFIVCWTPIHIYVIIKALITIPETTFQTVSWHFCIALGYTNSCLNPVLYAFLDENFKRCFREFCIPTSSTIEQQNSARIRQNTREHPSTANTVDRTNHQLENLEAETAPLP

| Compound | MRT [2, 7] | RT [3, 8] [min] | RT [3, 9] [min] | also measured |
| --- | --- | --- | --- | --- |
| C=CCN1C[C@H](C)N([C@H](c2ccc(C(=O)N(CC)CC)cc2)c2cccc(OC)c2)C[C@H]1C [SNC 80, 4-[(R)-[(2S,5R)-4-allyl-2,5-dimethylpiperazin-1-yl](3-methoxyphenyl)methyl]-N,N-diethylbenzamide, reference compound] | – | – | – | IC50 [1]: 8.1 nM |
| BE 2-12: beta-endorphin fragment, residues 2-12 (GGFMTSEKSQT; Beta-endorphin; UniProt P01189 238-248, looked up, fragment) | – | – | – | MRT [2, 4]: 18.1; Rt [3, 5]: 16.2 min |
| BE 2-13: des-tyrosine beta-endorphin fragment, residues 2-13 (GGFMTSEKSQTP; Beta-endorphin; UniProt P01189 238-249, looked up, fragment) | 65 | 17.08 | 19.96 | MRT [2, 4]: 16.4; MRT [2, 6]: 25.5; Rt [3, 5]: 17.2 min |
| BE 2-14: beta-endorphin fragment, residues 2-14 (GGFMTSEKSQTPL; Beta-endorphin; UniProt P01189 238-250, looked up, fragment) | 25.1 | 20.1 | 22.2 | MRT [2, 6]: 18.9 |
| BE 2-16: des-tyrosine beta-endorphin fragment, residues 2-16 (GGFMTSEKSQTPLVT; Beta-endorphin; UniProt P01189 238-252, looked up, fragment) | – | 20.43 | – | MRT [2, 6]: 15.1 |
| BE 2-17: des-tyrosine beta-endorphin fragment, residues 2-17 (GGFMTSEKSQTPLVTL; Beta-endorphin; UniProt P01189 238-253, looked up, fragment) | – | 24 | – | MRT [2, 6]: 7.45 |
| BE 3-11: beta-endorphin fragment, residues 3-11 (GFMTSEKSQ; Beta-endorphin; UniProt P01189 239-247, looked up, fragment) | – | 21.48 | – | MRT [2, 10]: 14; Rt [3, 11]: 15.4 min |
| BE 3-13: beta-endorphin fragment, residues 3-13 (GFMTSEKSQTP; Beta-endorphin; UniProt P01189 239-249, looked up, fragment) | – | – | – | MRT [2, 4]: 16.1; Rt [3, 5]: 17.2 min |
| BE 3-16: beta-endorphin fragment, residues 3-16 (GFMTSEKSQTPLVT; Beta-endorphin; UniProt P01189 239-252, looked up, fragment) | – | 20.43 | – | MRT [2, 6]: 11 |
| BE 3-17: beta-endorphin fragment, residues 3-17 (GFMTSEKSQTPLVTL; Beta-endorphin; UniProt P01189 239-253, looked up, fragment) | – | 24 | – | MRT [2, 6]: 6.2 |
| BE 4-11: beta-endorphin fragment, residues 4-11 (FMTSEKSQ; Beta-endorphin; UniProt P01189 240-247, looked up, fragment) | – | – | – | MRT [2, 10]: 22.7; Rt [3, 11]: 13.8 min |
| BE 4-13: beta-endorphin fragment, residues 4-13 (FMTSEKSQTP; Beta-endorphin; UniProt P01189 240-249, looked up, fragment) | – | 15.67 | – | MRT [2, 4]: 18; Rt [3, 5]: 15.7 min |
| BE 5-16: beta-endorphin fragment, residues 5-16 (MTSEKSQTPLVT; Beta-endorphin; UniProt P01189 241-252, looked up, fragment) | – | 16.92 | – | MRT [2, 6]: 13.2 |
| BE 5-24: beta-endorphin fragment, residues 5-24 (MTSEKSQTPLVTLFKNAIIK; Beta-endorphin; UniProt P01189 241-260, looked up, fragment) | 25.1 | – | 19 | – |
| BE 6-16: beta-endorphin fragment, residues 6-16 (TSEKSQTPLVT; Beta-endorphin; UniProt P01189 242-252, looked up, fragment) | 22.4 | 16 | 18.4 | – |
| BE 6-31: beta-endorphin fragment, residues 6-31 (TSEKSQTPLVTLFKNAIIKNAYKKGE; Beta-endorphin; UniProt P01189 242-267, looked up, fragment) | 40 | – | 24.7 | – |
| BE 10-16: beta-endorphin intermediate fragment, residues 10-16 (SQTPLVT; Beta-endorphin; UniProt P01189 246-252, looked up, fragment) | 44.3 | – | 19 | Time observed as metabolite in homogenised inflamed tissue ([2]; formed during incubation of BE 1–31, pH 5.5, 37°C): over 60 minutes |
| BE 10-18: beta-endorphin fragment, residues 10-18 (SQTPLVTLF; Beta-endorphin; UniProt P01189 246-254, looked up, fragment) | 13.3 | – | 28.2 | – |
| BE 10-24: beta-endorphin fragment, residues 10-24 (SQTPLVTLFKNAIIK; Beta-endorphin; UniProt P01189 246-260, looked up, fragment) | 11.3 | – | 28.2 | – |
| BE 10-28: beta-endorphin fragment, residues 10-28 (SQTPLVTLFKNAIIKNAYK; Beta-endorphin; UniProt P01189 246-264, looked up, fragment) | 32.3 | – | 26.9 | – |
| BE 10-31: beta-endorphin fragment, residues 10-31 (SQTPLVTLFKNAIIKNAYKKGE; Beta-endorphin; UniProt P01189 246-267, looked up, fragment) | 29 | – | 24.9 | – |
| BE 15-24: beta-endorphin fragment, residues 15-24 (VTLFKNAIIK; Beta-endorphin; UniProt P01189 251-260, looked up, fragment) | 25.2 | – | 22.44 | – |
| BE 18-31: beta-endorphin fragment, residues 18-31 (FKNAIIKNAYKKGE; Beta-endorphin; UniProt P01189 254-267, looked up, fragment) | 18.1 | – | 16.1 | – |
| BE 19-30: beta-endorphin fragment, residues 19-30 (KNAIIKNAYKKG; Beta-endorphin; UniProt P01189 255-266, looked up, fragment) | 72.2 | – | 14.3 | – |
| BE 19-31: beta-endorphin C-terminal fragment, residues 19-31 (KNAIIKNAYKKGE; Beta-endorphin; UniProt P01189 255-267, looked up, fragment) | 80 | – | 13.67 | – |
| BE 20-24: beta-endorphin intermediate fragment, residues 20-24 (NAIIK; Beta-endorphin; UniProt P01189 256-260, looked up, fragment) | 98 | – | 16.1 | – |
| BE 20-27: beta-endorphin intermediate fragment, residues 20-27 (NAIIKNAY; Beta-endorphin; UniProt P01189 256-263, looked up, fragment) | 97.1 | – | 16.1 | – |
| BE 20-28: beta-endorphin intermediate fragment, residues 20-28 (NAIIKNAYK; Beta-endorphin; UniProt P01189 256-264, looked up, fragment) | 87.6 | – | 16.1 | – |
| BE 20-29: beta-endorphin fragment, residues 20-29 (NAIIKNAYKK; Beta-endorphin; UniProt P01189 256-265, looked up, fragment) | 8.4 | – | 14.3 | – |
| BE 20-31: beta-endorphin C-terminal fragment, residues 20-31 (NAIIKNAYKKGE; Beta-endorphin; UniProt P01189 256-267, looked up, fragment) | 72.2 | – | 14.3 | – |
